Assay: label from the status in PepcDB records
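Note: failed if final PepcDB status was selected cloned or expressed and not failed if soluble or beyond.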

Sequence | protein production
SYETSQHNLDAVEAVLSRLQKQTGEMAAYMVPVGYRALCVSQRESMQALRCSFVQGQSQPLLRGASSKVMLAYMPAARCEKILRYFGEDPTLDKWQSEFEKIRRHGYAVSTSEIDPGVSGISAPVMKGSKLIGAISVMAPAHRVESNKQRIILHVLQAARAL | not failed
MIQTFFDFPVYFKFFIGLFALVNPVGIIPVFISMTSYQTAAARNKTNLTANLSVAIILWISLFLGDTILQLFGISIDSFRIAGGILVVTIAMSMISGKLGEDKQNKQEKSETAVRESIGVVPLALPLMAGPGAISSTIVWGTRYHSISYLFGFFVAIALFALCCWGLFRMAPWLVRVLRQTGINVITRIMGLLLMALGIEFIVTGIKGIFPGLLN | failed
MSLDMKEHPDAEVQKNQVLTLEDWKEKWVTRHISFHQEQGHQLLKKHLDTFLKGQSGLRVFFPLCGKAIEMKWFADRGHTVVGVEISEIGIREFFAEQNLSYTEEPLAEIAGAKVFKSSSGSISLYCCSIFDLPRANIGKFDRIWDRGALVAINPGDHDRYADIILSLLRKEFQYLVAVLSYDPTKHAGPPFYVPSAELKRLFGTKCSMQCLEEVDALEERHKAWGLDYLFEKLYLLTEK | not failed
MKKKNKLLFILGIIGPGLITVNAGNDAGGIATYATVGASYGYKMLWGLLLITFSLAIIQEMNARMAVVTGKGLSDLIRENYGVKWSLFAMCILFIANFGVCVGDFAGIAASLELFGISKYITVPIMAFLVWFVITKGSYEKTEKVFLAFTFVFFTYIITCIKVHPNWNVVMKATITPSLSFTKGYVLTLIGMIGTTITPYMQFYLQSSVVDKGLSVKEYKYEKIDVYLGAIWGDLVSFFIIVCTAVTLYKAGIKIDSAEQAAMALKPLAGNYATILFAAGLFGASVLATMVIPLSTTYAICEAFGFESGLDNSFSEAKTFYGIFTFMILFSAALVLVPKLSLVGIMLITQQIAGILSPVILIFMVLLINNKDIMGKYINNKLQNVIVYLTVAFIIILSLILFVSPIIDKLM | failed
MREETKCALIIDESLPLGLIANTAAILGAALGKNKPDLIGETVTDGSGIDHLGIVKIPIPILKGNAELLHQLSQKLLTDEFNDILTVDFTDVAQSIHTYEAYIEAFQSTAASDYRYFGIGICGDKKKVARLTGSLGLLRLEHHHHHH | not failed
MATDTTVQLRAGWQGRFYEDFAVGDVYKHPYGRTVTETDNVWFTNLTMNANPMHFNAAYASGTEFDERLVNGLFVIALSVGMSVVDVSANATANLGYDDIQHHAPVFHGDTLFAESEVLSKRESESRPHVGMVTTELRTYTQDGELVLSLERTPMVRKRGAADPLEHHHHHH | failed
MSLELPFSNQSIIPAAHNQKDMEKILELDLTYMVMLETHVAQLKALVKYAQAGGKKVLLHADLVNGLKNDDYAIDFLCTEICPDGIISTRGNAIMKAKQHKMLAIQRLFMIDSSAYNKGVALIQKVQPDCIELLPGIIPEQVQKMTQKLHIPVIAGGLIETSEQVNQVIASGAIAVTTSNKHLWEGHHHHHH | not failed
MTVVVERQISHPPEKLWRALTQPHLIEEWLMKNDFKPAVGHRFNISADWGGVLDCEVLAVEPNKTLSYTWNLAHQDPAFDLRSVVTFTLTPTPTGTHLRMEQSGFRPDQRRAYGGAKMGWPQFFEKLEQLLDRTDLEHHHHHH | not failed
MAGRRMKRLRAFFYVQHLLGIGHLARASRIAAALADDGFDITVVTGGPPIAGFPGQGVKSVTLPPVTSGDNGFSGLVDLQGKPIDDDFKKRRSEMLLQAFRDCRPDIVIVEAFPFGRRQMRFELLPLLETIEATSPRPLLATSVRDILQERVKPGRNEETVDLINRHFDLVMVHGDPAFTTIDKTFPLAGAITAEVTYTGLVGAPPSPAAAERFDILVSVGGGAAGRRLVSSTLAAARIANGWKWCLITGPNLPKDEFDVIACDATPGLSIFRFREDFASLLTGARLSVSQAGYNTVCDVLRAGCRSLLVPFAAGGETEQTVRALMLEELGLATVLTENDLTPDGLAQAIEQALAGPTPSAHRLDLEGARHSAQILRERYRTWSLKMGSGFGKEHDQTDDGS | failed
MSLEDRKNERLPSDLARRATAIIEMPDGVLVTASRGGRYNLPGGKANRGELRSQALIREIREETGLRINSMLYLFDHITPFNAHKVYLCIAQGQPKPQNEIERIALVSSPDTDMDLFVEGRAILRRYARLRNEETAKGEALRALLGLARYIAKVDEGHHHHHH | not failed
KGVVTIEQIVDTLPDRGRSCWHLGAVWALSQFQENELFLGMYPEEHFIEKPVKEAMARFRKNLEAIVSVIAERNKKKQLPYYYLSPDRIPNSVAI | failed
MHPKTQQILEVFEEINKIPRRSKHEEQISTWLQEWGRSRGFEVKADSLNNVLIKVPATTGYEDSPTLILQGHMDMVCEKCKDSIHDFSRDPIRCICDGDWMRGDGTSIGADDGIALALGLVMAEAGKKGEIGHPPLELLFTVDEETGLTGARGLETGFFEGKILLNLDSEDEGIFVIGCAGGQNSQITLPVEWELLDFKEENLFRFFRLSVEGLEGGHSGTEINKQRANGIQLLSLALVKLRGKLGIENVRLVLLNGGTVHNAIPSTAEAFIALHGEKLEKAAETMSDIRHAFKAEYAKTDPGLILNFEEISREIIFEVAEDKIPREEVSHVRVFSLETEEKLLELILGLPHGVYRMSETIHGLVETSNNLATVRTAGNEVIIVSSQRSSNNLRLAEISGKVEAISKLAGAWVEHEPGYPAWEPNLKSELILKCKQVYTETFGKEPEIEVIHAGLECGIIGSAHEGMEMISFGPTIKDAHSPAEKIFVPSIEKVWIFLENLFKTYC | failed
MSAEKSISSDHVPLSDPALKTINRNAGRNLNHIAFISTLGGLLFGVDTGVINGAIGYMATPAELNLSPNNEGLVTSGITLGAAFGAVFAGHLSDRIGRKRLLKYLALLFFVCTLACSLAPNALFMIISRVLLGLAVGGASVIVPTYLSEISTPEIRGRLVTQNELMIVTGQLLAFIVNAILGNWFGHISNIWRYMIGFGMIPAVALFFGMMVVPESPRWLVMVNQLDNAFDSLRKIRSHPETCNEEITQIQDTLNQESEIKQATFKDLSTPWIRRLVFIGIGLGVMQQFIGINIMMYYGTTILTNSGFAHNAALIANIGNGLVSVIATFIGMSIMNRVNRRSMLIAGIIGTTTSLILIVGVSAFLSQSPLLPILVVLCTMMFLGFFQGFISPLVWLLLSEIFPQNLRGLGMGVSTFFLWFANFLVGYFFPILLSAVGMTWTFLIFVFFNILSFIFAYKYAPETRGKSLELIQMEFKYGDTTGINPEDK | failed
MSMSTSTEVIAHHWAFAIFLIVAIGLCCLMLVGGWFLGGRARARSKNVPFESGIDSVGSARLRLSAKFYLVAMFFVIFDVEALYLFAWSTSIRESGWVGFVEAAIFIFVLLAGLVYLVRIGALDWTPARSRRERMNPETNSIANRQR | failed
EITSANTEWFFNPNAYVIIAESVESGKIVGGARIHIVGGTQPLPIEDAIGKMDPHIYKLVEEHGKKGSGELCGLWNAREVAGMGISTMLTRAAIALAIQLNLSTLFVICAERTYQNIFKDQGFEIIP | failed
MPRSCDVVVVNYNAGLLLEDCVISVLAQDINRLVLVDNASHDGSLEQVATRFAADERLLILRNPSNTGFAAACNLGASHCEQPHILFLNPDTVLQPGALQGMIDALRHTHDLGMAGGLLCNFDGSEQPGGRRVFPTPRRAVVRALNLSGLAWLSPRLFSDFLLHREPLPSRPTQVEAISGACMLVKRKALDSVGGWDEGYFLHCEDLDLCMRFRQEGWKVCFVPQARIFHAWGACSRTRPVFVEWHKHRGMIRFYGKFFREDYPRVLSWSICAGVWLRFSFVVGYHWLAQLGRILGQPR | failed
MKDCCGGYESEELLMDFSGKDKAAYVQDTFNSIAKRYDVMNTLMSFGLDKGWRKKAVQTVEAKPGMTMVDICCGTAQLSLELAMTVGEQGQITGLDFSENMLKKAQENLAGSPYRSIIELRQGDAMNLPFADNSFDGATVGWGLRNLPDLEKGVQEMIRVVKPGGMVVSLDMAKPTMPGFKQGYWLYFNKLVPLMGKIWAGKAKAYQYLHDSAVEFPSQQELANIFARCGLTETRYQNLAGGVVAIVSGRKPR | failed
MCDAHLRGPSGIITSPNFPIQYDNNAHCVWIITALNPSKAGGDPGNIQCNKEGLSVETQSLRLRNRSCLLGNSKDNGCCVPNPVHGTGLQVIKLAFEEFDLERGYDTLTVGDGGQDGDQKTVLYILTGTSVPDLIVSTNHQMWLLFQTDGSGSSLGFKASYEEIEQGSCGDPGIPAYGRREGSRFHHGDTLKFECQPAFELVGQKAITCQKNNQWSAKKPGCVCK | failed
MALWMDAGATPTTEKEKADLEAISALKESTAIEFKEEGNECVRKGKKHYSEAIDCYTKAISQGVLSDSETSILFSNRSHVNLLLGNYRRALTDAEESMRLSPHNVKAVYRAAKASMSLDLLNEAKSYCEKGIENDPSNEDMKKLLKLVNSKKQEKEQHEAQASQAVVEAKACLSAIENRGVKIGKAMYRELTGLKKPMLDKNNILHWPVLLLYAEAMTSDFVEDFCETDMFATHLDMMFSEDSPPLPWDKNNEYSRDVIELYYEASSGTPLPRSRVLQYLLEGTKGSQAETTGEEDTSATKTPSYLKGSSGMVKVNERRTLHDVLKEPKFVIPEIPVFYIVSKRSKFYKDFTAGKWTPPN | failed
MAKNKLLRMDNVSIVVESLDNAISFFEEIGLNLEGRANVEGEWAGRVTGLGSQCVEIAMMVTPDGHSRIELSRFLTPPTIADHRTAPVNALGYLRVMFTVEDIDEMVSRLTKHGAELVGEVVQYENSYRLCYIRGVEGILIGLAEELGNK | not failed
MERAVPLAVPLGQTEVFQALQRLHMTIFSQSVSPCGKFLAAGNNYGQIAIFSLSSALSSEAKEESKKPVVTFQAHDGPVYSMVSTDRHLLSAGDGEVKAWLWAEMLKKGCKELWRRQPPYRTSLEVPEINALLLVPKENSLILAGGDCQLHTMDLETGTFTRVLRGHTDYIHCLALRERSPEVLSGGEDGAVRLWDLRTAKEVQTIEVYKHEECSRPHNGRWIGCLATDSDWMVCGGGPALTLWHLRSSTPTTIFPIRAPQKHVTFYQDLILSAGQGRCVNQWQLSGELKAQVPGSSPGLLSLSLNQQPAAPECKVLTAAGNSCRVDVFTNLGYRAFSLSF | failed
MPGWHALTKPARFRYPEGLHGREIRVEFIDNIRYKKIKNAVGRAVADFGLIRDGDRIAVAVSGGKDSYTLLHILEGLRRRAPVKYELVAVTIDSGYPGFRSDVIASYLREQGFAHHLETTDHYDIIREKRRPGSSYCSICARLKRGVLYTLAQKLGCNKLALGHHLDDFVETLLLNQFFVGTLKAMAPRMLADNGETTVIRPLVYVEEREIIPFARENRFPVVCCSCPVCGTADLQRRRMKKLLTELEKENPAVKRSLLRALGNVQPRYLLDLELQRLCDVP | failed
METGAGIGLYPLHRCKTIYLVRHAQGIHNVDGEKNYKAYMSHDYFDAELTQLGWKQVDSLRKHVHSSGLHKKIELVISSPLMRTLQTAVGVFGGEGYTDMSDVLPLMVANAGNSSRAAISSLNCPPVITEESCREHLGVHPCDQRRSISDYQFLFPAVDFSLIESEEDKLWKADVRETIEELAARGKKFLNWLWTRKEKEIAIVTHSGFLFHTLNALQNECHPDVKKEICGHFANCELRSMVIVDRSMLGSDSSVTDYPGKIPKGIDLPSDAVVDDNNIKVE | not failed
MKKFFIIGTDTEVGKTYISTKLIEVCEHQNIKSLCLKPVASGQSQFSELCEDVESILNAYKHKFTAAEINLISFNQAVAPHIIAAKTKVDISIENLKQFIEDKYNQDLDILFIEGAGGLLTPYSDHTTQLDLIKALQIPVLLVSAIKVGCINHTLLTINELNRHNIKLAGWIANCNDSNIKYIDEQINTIEELSGYKCSAKISRNADYLDFIDLSKILISPEENE | not failed
MIGFLILLFIFVAGFFIMQMLIYRFAKKNIHKYTKIKWFHMWLHMNMKKGPRLDFFDFVVTVLVCIVWKIWLLPFI | failed

Reference: a protein production outcome set (Wang et al. 2014)
